The supplement of paper PMC9170038

Test system: MS2 coat protein
Test: apparent KD of MS2 coat protein; designed switch direction (-1 OFF switch, 1 ON switch): -1; higher = weaker reporter binding
Summary of the method: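 Designed RNA switches with common flanks were transcribed on Illumina chips by stalled E. coli RNA polymerase and titrated with SNAP-549-labelled MS2 coat protein, from 0.7 or 1.5 nM doubling to 3 µM, in Tris-HCl pH 7.5 buffer with KCl, MgCl2, BSA, DTT, tRNA and Tween-20. Steps lasted 0.8–1.5 h (lowest) to 10–20 min (highest). Titrations ran without input, with 200 uM small-molecule ligand, or with an oligonucleotide input. Normalised cluster fluorescence was curve-fitted, and apparent KD is the per-design median over clusters.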

[1] = input ligand: microRNA oligo, concentration not stated
[2] = Eterna round: R95, input ligand: FMN 200 uM
[3] = Eterna round: R95, input ligand: microRNA oligo, concentration not stated
[4] = Eterna round: R95, input ligand: none

| Sequence | apparent KD of MS2 coat protein (input ligand: FMN 200 uM) [nM] | apparent KD of MS2 coat protein (input ligand: none) [nM] | apparent KD of MS2 coat protein [1] [nM] | apparent KD of MS2 coat protein [2] [nM] | apparent KD of MS2 coat protein [3] [nM] | apparent KD of MS2 coat protein [4] [nM] |
| --- | --- | --- | --- | --- | --- | --- |
| GGCAUGUAAGGAUAUGCCACUGAGUGCUUUGCGCUCAGGAAGCAGAAGGUACAUGAGGAUCACCCAUGUGAUAA [jl-ex4-4.52 ViennaUCT mod] (Eterna round: R97, puzzle: Exclusion 4) | 109 | 714 |  |  |  |  |
| GGCCCGCGCGGGCCCGGGCCCGGGACAUGAGGAUCACCCAUGUAGGAUAUCCGGCCCGCCGGGCCGGAGAAGGACAUGGGCCCG [-48.9, -45.2 kcal, 17% A] (Eterna round: R96, puzzle: Exclusion NG 3) | 34.1 | 16.9 | 11.1 |  |  |  |
| GGCCCUAAGGUCAGAUCCACAAGCUUUUUGCUCGUUUUAACAUGAGGAUCACCCAUGUCUAGUGGAUUUGAUCCUCU [Sensor v3, turn-off variant 2 (MOD of Indiso v.8)] (puzzle: Sensor v3, turn-off variant 2) |  |  |  | 27.9 | 9.69 | 33.5 |
| GGCCGAGAACAGCUCCACGCUACCCUCGGCCGCUCAUUUACAUGAGGAUCACCCAUGUUUUUUGCUUGUCUUGUUUC [Xeisrarabi] (puzzle: Sensor v3, turn-off variant 2) |  |  |  | 22.1 | 94.1 | 24.1 |
| GGCCUGUUAGGAUAUUAGUAGUAGUCAGAAAAGACUAUUACUGAGAAGGAACAUGAGGAUCACCCAUGUUGGCC [Mat - Exclusion 4 - Eli Mod - D39] (Eterna round: R97, puzzle: Exclusion 4) | 17.2 | 17.4 |  |  |  |  |
| GGCGACCACCUCGUGCACUACAUGAGGAUCACCCAUGUUUUUCGCUCGUCUUAUGCGCCAACCUCCCAAACACUAAG [Gelaesxe] (puzzle: Sensor v3, turn-off variant 1) |  |  |  | 34.6 | 103 | 35.4 |
| GGCGGUGCAGGAUAUUGAAAACUACACAUGAGGAUCACCCAUGUUCCUCACCGGUACAAGCAAGAAGGGCGGUGCA [Erxegetiis] (puzzle: Exclusion 5) |  |  |  | 18.9 | 19.4 | 18.3 |
| GGCGUGUAUUAGGAUAUUGGAGGGAGGGAGGGCUAAGAAGGAGUAACAUGAGGAUCACCCAUGUAGAGGAAGGG [RHig 2] (Eterna round: R97, puzzle: Exclusion 6) | 63.1 | 95.3 |  |  |  |  |
| GGGAAGAACCAACAAGCAAACAUGAGGAUCACCCAUGUAGUAAGAGAAAUUGAGGUGAUUCAGAGAGCUCGACUUAU [AK-miRNA-r3-7.1] (Eterna round: R97, puzzle: Sensor, turn-off variant 1) | 367 | 359 |  |  |  |  |
| GGGAAGAACCAACAAGUUAACAUGAGGAUCACCCAUGUUGACUUCAUGUGCACGCAAAGCGUGCAAGCUCGUCUUAU [AK-miRNA-r3-15] (Eterna round: R97, puzzle: Sensor, turn-off variant 1) | 17.9 | 17.2 |  |  |  |  |
| GGGACACAUGAGGAUCACCCAUGUGAGGAUAUGUUAGUUUCGGCCAAAGCCGAAAUUAACAGAAGGCACAUACC [JR_Exclusion1_Sub020] (puzzle: Exclusion 1) |  |  |  |  | 35.7 |  |
| GGGAUGUCAGGAUAUACAUGAGGAUCACCCAUGUAGAGAUAAGAUAGGGAAAGAGUAGGUAGAAGGGACGAGAG [JR_Exclu3_Sub044] (puzzle: Exclusion 3) |  |  |  | 22 | 19.9 | 24.5 |
| GGGAUGUGAGGAUAUCGAGGUGCAAAGCACCUAAAAGAAAACGAGAAGGCACAUGAGGAUCACCCAUGUAAUAC [Xeinle] (puzzle: Exclusion 4) |  |  |  | 105 | 26 | 26 |
| GGGCCCGGAGGAUAUACAAUGCGCGCGCGAAAGUGUGUGUUACAUGAGGAUCACCCAUGUAGAAGGCCGGGCCC [-39.9, -36.7 kcal A 24%, 6,0] (Eterna round: R97, puzzle: Exclusion 2) | 39.4 | 16.7 |  |  |  |  |
| GGGCCCGGAGGAUAUACAUGAGGAUCACCCAUGUAGGGCCCGGGUAUUUUUGGGCCCUGUAGAAGGCCGGGCCC [-41.6, -38.7 kcal, A 19%, 5c,0] (Eterna round: R97, puzzle: Exclusion 3) | 13 | 12.6 |  |  |  |  |
| GGGUGACAUGAGGAUCACCCAUGUCAGGAUAUGAUUCUGCUUGGGAAACCGAGUAGAAUCAGAAGGGACAUCCC (Eterna round: R97, puzzle: Exclusion 1) | 324 | 54.3 |  |  |  |  |
| GGGUGACAUGAGGAUCACCCAUGUCAGGAUAUUGAUCGUGAUCGGAAAUGAUCGUGAUCGAGAAGGGACUGCCC [-27.4, -26.4 kcal, A 27% sequence 2] (Eterna round: R97, puzzle: Exclusion 1) | 224 | 52 |  |  |  |  |
| GGGUUACAUGAGGAUCACCCAUGUGAGGAUAUGAUACUAUGUACUUCGGUACAUAGUAUCAGAAGGCACAUCCC [Ex1-3: 20] (puzzle: Exclusion 1) |  |  |  |  | 31.4 |  |
| GGUACUAACACGAGAGUGUUAGUACUAUAAGCUUGUGUUACAUGAGGAUCACCCAUGUCCUCAUAGGCUCGUCUUAA [Mat - Sensor v3 - Turn-off var 2 - D81] (puzzle: Sensor v3, turn-off variant 2) |  |  |  | 82.4 | 61 | 82.4 |
| GGUACUAUCACCUGAGUGGUAGUGCAAUAAGCUUGUGAUACAUGAGGAUCACCCAUGUCCUCAUUUGCUCGUCUUAU [JL-sv3-2.26 JL mod] (puzzle: Sensor v3, turn-off variant 2) |  |  |  | 533 | 516 | 839 |
| GGUACUCAAAGAGUACCAAUACGAACAUGAGGAUCACCCAUGUAGGAUAUGCUACUCAAAGAGUAGCAGAAGGAUAUGAACCUU [Far Half Aptamer v9] (Eterna round: R96, puzzle: Exclusion NG 3) | 22.5 | 23.8 | 15.5 |  |  |  |
| GGUACUCAAAGAGUACCAAUACGAACAUGAGGAUCACCCAUGUAGGAUAUGCUACUCAAAGAGUAGCAGAAGGAUAUGAGCCUC [Far Half Aptamer v11] (Eterna round: R96, puzzle: Exclusion NG 3) | 663 | 334 | 319 |  |  |  |
